Three molecules from patent US20100022454A1 (Novo Nordisk, published 2010) can be followed below.

Experiment [1] deals with prolactin receptor (PRLR) on T47D cells. Nature of the experiment: cell-based or functional assay.
The target in experiment [2] is T1, hPRLR on stably transfected BaF/3 cells (human, UniProt P16471 25-622).
T1 sequence (looked up): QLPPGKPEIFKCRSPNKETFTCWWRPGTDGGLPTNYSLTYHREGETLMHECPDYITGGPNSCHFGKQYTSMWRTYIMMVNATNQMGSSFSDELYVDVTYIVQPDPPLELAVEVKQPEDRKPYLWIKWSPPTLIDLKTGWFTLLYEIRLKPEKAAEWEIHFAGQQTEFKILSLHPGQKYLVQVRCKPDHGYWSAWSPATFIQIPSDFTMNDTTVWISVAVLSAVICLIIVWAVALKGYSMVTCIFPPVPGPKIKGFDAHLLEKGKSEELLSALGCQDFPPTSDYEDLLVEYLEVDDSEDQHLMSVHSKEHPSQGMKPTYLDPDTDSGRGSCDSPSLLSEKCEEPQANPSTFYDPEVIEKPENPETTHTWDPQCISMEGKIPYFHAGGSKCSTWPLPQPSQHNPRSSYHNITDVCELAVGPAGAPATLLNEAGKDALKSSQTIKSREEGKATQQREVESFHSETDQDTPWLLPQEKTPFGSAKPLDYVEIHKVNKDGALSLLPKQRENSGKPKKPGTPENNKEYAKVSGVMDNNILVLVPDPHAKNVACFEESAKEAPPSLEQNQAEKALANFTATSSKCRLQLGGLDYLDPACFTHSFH
Put plainly: cell-based or functional assay.

B1: PRL G129R (ligand)
chain: LPICPGGAARCQVTLRDLFDRAVVLSHYIHNLSSEMFSEFDKRYTHGRGFITKAINSCHTSSLATPEDKEQAQQMNQKDFLSLIVSILRSWNEPLYHLVTEVRGMQEAPEAILSKAVEIEEQTKRLLERMELIVSQVHPETKENEIYPVWSGLPSLQMADEESRLSAYYNLLHCLRRDSHKIDNYLKLLKCRIIHNNNC
With B1, the “Apparent IC50 (nM) at 20 nM PRL; inhibition of PRL induced STAT3 phosphorylation, phospho-STAT3 ELISA on T47D cells” value in experiment [1] was 69 nM.

B2: human prolactin (PRL), wildtype (ligand)
chain: LPICPGGAARCQVTLRDLFDRAVVLSHYIHNLSSEMFSEFDKRYTHGRGFITKAINSCHTSSLATPEDKEQAQQMNQKDFLSLIVSILRSWNEPLYHLVTEVRGMQEAPEAILSKAVEIEEQTKRLLEGMELIVSQVHPETKENEIYPVWSGLPSLQMADEESRLSAYYNLLHCLRRDSHKIDNYLKLLKCRIIHNNNC
With B2, in experiment [2], the “EC50 (nM) of PRL in the presence of 1 µM PRL S61A G129R, BaF3 proliferation assay (AlamarBlue), n = 9” value was 40 nM and the “EC50 (nM), BaF3 proliferation assay (AlamarBlue), n = 31” value came out at 0.15 nM.

B3: PRL S61A G129R (ligand)
chain: LPICPGGAARCQVTLRDLFDRAVVLSHYIHNLSSEMFSEFDKRYTHGRGFITKAINSCHTASLATPEDKEQAQQMNQKDFLSLIVSILRSWNEPLYHLVTEVRGMQEAPEAILSKAVEIEEQTKRLLERMELIVSQVHPETKENEIYPVWSGLPSLQMADEESRLSAYYNLLHCLRRDSHKIDNYLKLLKCRIIHNNNC
Turning to B3, in experiment [1], the “Apparent IC50 (nM) at 20 nM PRL; inhibition of PRL induced STAT3 phosphorylation, phospho-STAT3 ELISA on T47D cells” value came out at 18 nM.
